The text below walks through data of US20250205337A1, “COMPOSITIONS AND METHODS FOR ACTIVATING IMMUNE CELLS” (MDX Management LLC, priority 2022, published 2025).

Entries after “also recorded” stand apart in the source; their conditions may differ.

Holding throughout (assay type): cell-based, human
Assay [1] deals with monocytes from cancer patients (cMo). The experiment in a line: cMo survival in vitro (STAT3 activators, inhibitors, M-CSF/GM-CSF, KX1). Conditions: for effect of inhibitor on KX1-supported cMo survival: cMo in KX1; for cMo survival (and differentiation) on supplementation: IL-10-depleted KX1 / in place of IL-10. From the text:
After two days, the T cell culture medium was used to treat cMo.
IL-10/IL-10R signaling activates the downstream STAT3 signaling pathway.
(§1) The mechanisms by which KX1 could promote cMo survival was further studied.

Assay [2] shares this test system. The assay is described as follows: Cytokine depletion assays of Karnelian X1 (cMo survival/adhesion and differentiation). The conditions noted are these: for role of the cytokine in Karnelian X1 for cMo survival and differentiation: depletion assays. Here is the method:
The differentiation of cMo from >100 cancer patient samples was tested.
The role of IL-10 and other key factors in KX1 was further studied.

Assay [3] deals with Akt, Erk1/2, STAT3, caspase-9 and caspase-3 in cMo. The experiment in a line: Survival and apoptosis signal transduction in cMo (Western blotting).
Text: (§2) Examination of Akt and Erk1/2, as well as other signaling molecules, detected similar total levels in Mo versus cMo (FIG. 2C), ruling out the absence of protein phosphorylation due to reduction of protein translation.
as §1
The role of IL-10 and other key factors in KX1 was further studied. As shown in FIG. 9A-9D, depletion of IL-10 diminished (>70%) KX1-mediated activation of Akt, Erk 1/2, and STAT3, and this global reduction of survival signal was associated with an increase in cell death signal through activation of caspase-9 and caspase-3.
As shown in FIG. 10A-10C, triple cytokine combination (C-combo V1) was capable of achieving >80% cMo differentiation, although each component alone was not sufficient.
Background: Immunoblotting shows a protein as a band on a membrane.

The test system of assay [4] is monocytes from healthy donors (Mo). The assay is described as follows: Response of monocytes from healthy donors (Mo) to M-CSF and GM-CSF.
Text: Similarly, cMo poorly respond to GM-CSF alone or GM-CSF plus IL-4 that drives DC differentiation (data not shown). […] Parallel experiments testing the same M-CSF and GM-CSF reagents successfully differentiated Mo from healthy donors with >90% survival rates.
as §2

Where [5] appears, read: in vitro, at optimal concentration.
Setting [6] is: promoting cMo survival in vitro, small molecule STAT3 activators.
Setting [7] is: cytokine depleted from Karnelian X1.
The mark [8] stands for this setting: promoting cMo survival in vitro.

In the case of `COc1ccc(S(=O)(=O)Nc2cc(-c3c(O)ccc4ccccc34)c(O)c3ccccc23)cc1` [C188-9, reference compound], the “effect of inhibitor on KX1-supported cMo survival” value (“effect of inhibitor” for short) in assay [1] is reported as “dose-dependently nullified the effect of KX1”.
Consider Colivelin TFA [reference compound], for which the “cMo survival (and differentiation) on supplementation” value (shortened to “cMo survival (and differentiation)”) in assay [1] was “restored cMo survival”. The “Effectiveness (cMo survival rate)” value in assay [1] (setting [5]) was 90-100%. Also, the “Optimal concentration (ng/mL)” value in assay [1] (setting [6]) was 10000 to 100000 ng/mL.
Turning to `CC(=O)c1cc2c(o1)C(=O)c1ccccc1C2=O` [Napabucasin, reference compound], the “effect of inhibitor” value in assay [1] is “dose-dependently nullified the effect of KX1”.
Turning to TNFα, the “reduction of cMo adhesion and survival on depletion of the cytokine from Karnelian X1” value (from here on “reduction of cMo adhesion and survival”) in assay [2] (setting [7]) was approximately 20%.
On to “GM-CSF: Granulocyte-macrophage colony-stimulating factor”, for which, in assay [3], the “activation of Akt, Erk1/2, STAT3 in cMo” value was “failed to activate Akt and Erk1/2”; the “caspase-9 and caspase-3 cleavage in cMo” value is “increased caspase-9 and caspase-3 cleavage; also recorded: did induce apoptotic signals via cleavage of caspase-9 and caspase-3”. In assay [4], the “survival signal transduction in Mo (activation of Akt and Erk1/2)” value is on record as “induced strong survival signal transduction in Mo cells”. For the same molecule, in assay [2], the “role of the cytokine in Karnelian X1 for cMo survival and differentiation” value (“role … for cMo survival and differentiation” for short) is given as “variable”. Moreover, the “cMo responsiveness to differentiation factor” value in assay [1] (over twenty cMo samples, various solid tumors) is “non- or poor responsiveness”.
Take `Cc1[nH]nc2ccc(-c3cncc(OC[C@@H](N)Cc4ccccc4)c3)cc12` [A-674563, reference compound]: the “effect of inhibitor” value in assay [1] is listed as “abrogated KX1 effectiveness”.
On to `COc1c(O)cc2oc3cc(O)c(CC=C(C)C)c(O)c3c(=O)c2c1CCC(C)(C)O` [Garcinone D, reference compound], for which the “cMo survival (and differentiation)” value in assay [1] is “restored cMo survival”. The “Effectiveness (cMo survival rate)” value in assay [1] (setting [5]) was 90-100%. Further, the “Optimal concentration (ng/mL)” value in assay [1] (setting [6]) fell in the range of 500 to 2000 ng/mL.
Consider `NC1(Cc2ccc(Cl)cc2)CCN(c2ncnc3[nH]ccc23)CC1` [CCT128930, reference compound], for which the “effect of inhibitor” value in assay [1] is listed as “abrogated KX1 effectiveness”.
For JAK inhibitor I [reference compound], in assay [1], the “effect of inhibitor” value was “dose-dependently nullified the effect of KX1”.
As to `N#CC(=C(/N)Sc1ccccc1N)/C(C#N)=C(\N)Sc1ccccc1N` [U0126, reference compound], in assay [1], the “effect of inhibitor” value is given as “abrogated KX1 effectiveness”.
For “IL-6: Interleukin 6, IL-6 family cytokine”, in assay [3], the “activation of Akt, Erk1/2, STAT3 in cMo” value is recorded as “weaker ability to activate Akt in cMo”. The “role … for cMo survival and differentiation” value in assay [2] was “variable”. The “cMo survival (and differentiation)” value in assay [1] was “only moderately supported cMo survival and differentiation”. Moreover, the “Effectiveness (cMo survival rate)” value in assay [1] (setting [5]) is 20-30%. Further, the “Optimal concentration” value in assay [1] (setting [8]) is 20 to 100 ng/mL.
Turning to IL-17: cytokine in Karnelian X1, the “role … for cMo survival and differentiation” value in assay [2] is listed as “dispensable”.

B1: G-CSF: growth factor tested in IL-10-depleted KX1 (protein, UniProt P09919 31-207, looked up)
Granulocyte …: TPLGPASSLPQSFLLKCLEQVRKIQGDGAALQEKLVSECATYKLCHPEELVLLGHSLGIPWAPLSSCPSQALQLAGCLSQLHSGLFLYQGLLQALEGISPELGPTLDTLQLDVADFATTIWQQMEELGMAPALQPTQGAMPAFASAFQRRAGGVLVASHLQSFLEVSYRVLRHLAQP
As to B1, in assay [1] (in IL-10-depleted KX1), the “Effectiveness (cMo survival rate)” value is listed as 30-40% in and the “Optimal concentration (ng/mL)” value is reported as >1 ng/mL (1-200).

B2: IL-24: IL-10 family cytokine, STAT3 activator (protein, UniProt Q13007 52-206, looked up)
Interleukin-24: QEFHFGPCQVKGVVPQKLWEAFWAVKDTMQAQDNITSARLLQQEVLQNVSDAESCYLVHTLLEFYLKTVFKNYHNRTVEVRTLKSFSTLANNFVLIVSQLQPSQENEMFSIRDSAHRRFLLFRRAFKQLDVEAALTKALGEVDILLTWMQKFYKL
As for B2, in assay [1], the “cMo survival (and differentiation)” value is “could replace IL-10 to support cMo survival and differentiation”. Also, in assay [1] (setting [5]), the “Effectiveness (cMo survival rate)” value was 70-85%. Besides, in assay [1] (setting [8]), the “Optimal concentration (ng/mL)” value is recorded as >20 ng/mL (20-100).

B3: IFNγ: Interferon gamma, cytokine in Karnelian X1 (protein, UniProt P01579 24-161, looked up)
Interferon gamma: QDPYVKEAENLKKYFNAGHSDVADNGTLFLGILKNWKEESDRKIMQSQIVSFYFKLFKNFKDDQSIQKSVETIKEDMNVKFFNSNKKKRDDFEKLTNYSVTDLNVQRKAIHELIQVMAELSPAAKTGKRKRSQMLFRG
Regarding B3, the “reduction of cMo adhesion and survival” value in assay [2] (setting [7]) was approximately 20%.

B4: IL-11: IL-6 family member cytokine (protein, UniProt P20809 22-199, looked up)
Interleukin-11: PGPPPGPPRVSPDPRAELDSTVLLTRSLLADTRQLAAQLRDKFPADGDHNLDSLPTLAMSAGALGALQLPGVLTRLRADLLSYLRHVQWLRRAGGSSLKTLEPELGTLQARLDRLLRRLQLLMSRLALPQPPPDPPAPPLAPPSSAWGGIRAAHAILGGLHLTLDWAVRGLLLLKTRL
On to B4, for which the “cMo survival (and differentiation)” value in assay [1] was “only moderately supported cMo survival and differentiation”.

B5: IL-19: IL-10 family cytokine, STAT3 activator (protein, UniProt Q9UHD0 25-177, looked up)
Interleukin-19: LRRCLISTDMHHIEESFQEIKRAIQAKDTFPNVTILSTLETLQIIKPLDVCCVTKNLLAFYVDRVFKDHQEPNPKILRKISSIANSFLYMQKTLRQCQEQRQCHCRQEATNATRVIHDNYDQLEVHAAAIKSLGELDVFLAWINKNHEVMFSA
Turning to B5, the “cMo survival (and differentiation)” value in assay [1] was “could replace IL-10 to support cMo survival and differentiation”. Moreover, the “Effectiveness (cMo survival rate)” value in assay [1] (setting [5]) is listed as 70-85%. Further, the “Optimal concentration (ng/mL)” value in assay [1] (setting [8]) is >10 ng/mL (10-100).

B6: IL-23: IL-12 family cytokine, STAT3 activator (protein, UniProt Q9NPF7 20-189; P29460 23-328, looked up)
Interleukin-23 subunit alpha: RAVPGGSSPAWTQCQQLSQKLCTLAWSAHPLVGHMDLREEGDEETTNDVPHIQCGDGCDPQGLRDNSQFCLQRIHQGLIFYEKLLGSDIFTGEPSLLPDSPVGQLHASLLGLSQLLQPEGHHWETQQIPSLSPSQPWQRLLLRFKILRSLQAFVAVAARVFAHGAATLSP
Interleukin-12 subunit beta: IWELKKDVYVVELDWYPDAPGEMVVLTCDTPEEDGITWTLDQSSEVLGSGKTLTIQVKEFGDAGQYTCHKGGEVLSHSLLLLHKKEDGIWSTDILKDQKEPKNKTFLRCEAKNYSGRFTCWWLTTISTDLTFSVKSSRGSSDPQGVTCGAATLSAERVRGDNKEYEYSVECQEDSACPAAEESLPIEVMVDAVHKLKYENYTSSFFIRDIIKPDPPKNLQLKPLKNSRQVEVSWEYPDTWSTPHSYFSLTFCVQVQGKSKREKKDRVFTDKTSATVICRKNASISVRAQDRYYSSSWSEWASVPCS
As for B6, the “cMo survival (and differentiation)” value in assay [1] was “could replace IL-10 to support cMo survival and differentiation”. Also, the “Effectiveness (cMo survival rate)” value in assay [1] (setting [5]) is on record as 50-70%. Besides, the “Optimal concentration (ng/mL)” value in assay [1] (setting [8]) was >10 ng/mL (10-100).

B7: IL-22: IL-10 family cytokine, STAT3 activator (protein, UniProt Q9GZX6 34-179, looked up)
Interleukin-22: APISSHCRLDKSNFQQPYITNRTFMLAKEASLADNNTDVRLIGEKLFHGVSMSERCYLMKQVLNFTLEEVLFPQSDRFQPYMQEVVPFLARLSNRLSTCHIEGDDLHIQRNVQKLKDTVKKLGESGEIKAIGELDLLFMSLRNACI
As for B7, the “cMo survival (and differentiation)” value in assay [1] is “could replace IL-10 to support cMo survival and differentiation”. In addition, the “Effectiveness (cMo survival rate)” value in assay [1] (setting [5]) is given as 80-100%. In addition, the “Optimal concentration (ng/mL)” value in assay [1] (setting [8]) was >10 ng/mL (10-100).

B8: IL-4: Interleukin 4, cytokine in Karnelian X1 (protein, UniProt P05112 25-153, looked up)
Interleukin-4: HKCDITLQEIIKTLNSLTEQKTLCTELTVTDIFAASKNTTEKETFCRAATVLRQFYSHHEKDTRCLGATAQQFHRHKQLIRFLKRLDRNLWGLAGLNSCPVKEANQSTLENFLERLKTIMREKYSKCSS
Take B8: in assay [2] (setting [7]), the “reduction of cMo differentiation to APCs” value was approximately 50%. Moreover, in assay [2], the “role … for cMo survival and differentiation” value is “did not affect cMo survival/adhesion”.

B9: IL-10: Interleukin 10, cytokine; recombinant form added back; IL-10 family STAT3 activator (protein, UniProt P22301 19-178, looked up)
Interleukin-10: SPGQGTQSENSCTHFPGNLPNMLRDLRDAFSRVKTFFQMKDQLDNLLLKESLLEDFKGYLGCQALSEMIQFYLEEVMPQAENQDPDIKAHVNSLGENLKTLRLRLRRCHRFLPCENKSKAVEQVKNAFNKLQEKGIYKAMSEFDIFINYIEAYMTMKIRN
As for B9, the “diminution of KX1-mediated activation of Akt, Erk 1/2 and STAT3” value in assay [3] (cytokine depleted from KX1) is on record as more than 70%. The “remnant cells that survived IL-10 depletion” value in assay [2] (IL-10 depleted from Karnelian X1) is listed as 5-20%. Further, the “reduction of cMo adhesion and survival” value in assay [2] (setting [7]) is listed as 60-80%. Besides, in assay [2], the “role … for cMo survival and differentiation” value was “only weakly influence cMo differentiation to APCs”. Moreover, the “cMo survival (and differentiation)” value in assay [1] is recorded as “dose-dependently restored its survival capacity”. Further, in assay [1] (setting [5]), the “Effectiveness (cMo survival rate)” value is listed as 90-100%. In assay [1] (setting [8]), the “Optimal concentration (ng/mL)” value is recorded as >10 ng/mL (10-100).
